These results are taken from the nanobody polyreactivity screen of Harvey et al. (2022).

This data set in a line: yeast display, Sf9 membrane polyspecificity reagent, FACS + sequencing; frameworks hold sequencing errors. The method, boiled down: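 Sorting gates, low and high (top ~1%), were placed on anti-HA fluorescence to track expression and on streptavidin fluorescence to track reagent binding. A clone's polyreactivity label is taken from the gate it came out of. The reagent was 10% biotinylated, detergent-solubilized Sf9 membrane, applied for 1 hour at 4 °C to galactose-induced yeast display cells.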
Consider “QGHLEESGGGLVQAGGSLRISCAASGRILPYYVMGGYRPAPGKERELVATIYWSGGSTYYADSVKGRFTISRDNAKNNVNLQINSLKPEDTAVYYSNAAPSDDYDYWGQGTQVTVSS”, for which the “polyreactivity (PSR sort gate)” value was “low polyreactivity”. Turning to “QGHLVESGGGLVQAGGSLRLSCAASGRIIRWNAMGWYRQGPGKERELFAGISGSGGSTYYADSVKGRFTISRDNAKNSVYLQMNSLKPEDTAVYYCNADADSSTYVGILQRLDYWGQGTQVTVSS”, the “polyreactivity (PSR sort gate)” value is “low polyreactivity”. Then “QGKLVESGGGLVQAGGSLRLSCAASGLTFGSNTMGGYRQAPGKERELVAAITSNGGSTYYADSVKGRFTISRDNAKNTVYVQMNSLKPEDTAVYYCAARSYDGYYRYYYWGQGTQVTVSS”, with “low polyreactivity”. As to “QGQIVESGGGLVQAGGSLRLSCAASGFTFRRYAMGWYRQAPGKEREVVAGITSSGGSTYYADSVKGRFTSSRDKAKNPVYLQMNSLKPEDTAVYYCAAEWVYTSFDYWGQGTQVSVSS”, the “polyreactivity (PSR sort gate)” value was “high polyreactivity”.

As to “QGQLGESGGGLVQAGGSLRLSCAASGSNFSSNAMGWYRQAPWKERELVAAISSGGSTNYADSVKGRFTISRDNAKNTVYLQMNSLKPEDTAVYYCAADTSTGVYTPYAFEFDWGQGTQVTVSS”, the “polyreactivity (PSR sort gate)” value was “low polyreactivity”. Consider “QGQLVDSGGGVVQAGGSLRLSCAASGRTFPVYAMGWYRQAPGKERELVAAISSRGGSTYYADSVKGRFTISRDNAKNTVYLQMNSLKPEDTAVYYCAARMPGPRRFTMDYWGQGTQVTVSS”, for which the “polyreactivity (PSR sort gate)” value was “high polyreactivity”. Then “QGQLVDSGGGVVQAGGSLRLSSAASGRSFGRNVMGWYRPAPGKERELVAAIRYSSGGTYYADSVKGRFTISRDYAKNTVDLQMNSLKPEDTAVYYCAARFFRGYRGGDWGQGTQVTVSS”, with “high polyreactivity”; and “QGQLVESGGALFQAGGSLSLSCAASGRNFKRYAMGRYRQAPGKERELVAAIRTSDGLTYYADSVKGRFTISRDNAENTDYLQMNSLKPEETSVYYCADGYPYYHVYGYGYWGQGTQVTVSS”, with “low polyreactivity”; and “QGQLVESGGCLVQEGGSLRLSCAASGRIFLYYTMGWYRQAPGKERELVAAITRSGGSTYYADSVKGRFTISRDNAKNTVYLQMNSLQPVDTAVSYCNRAYVRYVPMNYWGQGTLVTVSS”, with “high polyreactivity”. Then “QGQLVESGGGLVQAGGRLRLSCAAAGGIFYSNRMGWYRQATGKEREMVAAITGGDITDYADSVKGRFTISRDNAKNTDYLQMNSLKPEDTAVYYCAGESNPPDYGPRFGSWGQGTQVSVSS”, with “low polyreactivity”; and “QGQLVESGGGLVQAGGRLRLSCAASGRIFPNNAMGWYRQAPGKERELVAAISRSGGRTYYADSVKGRFTISRDNAKNTVYLQMNSLKPEDTAVYYCAARSWGGYDSRGYWGQGTQVTVSS”, with “high polyreactivity”; and “QGQLVESGGGLVQAGGSLRFSCAASGSTFRSYALGGYRQAPGKEWELVAAISGDGSTNYADSVKGRFTISRDNAKNPVYLQMNSLKPEDTAVYYCAKDPGYPAPYYDYYYWGQGTKVTVSS”, with “low polyreactivity”. Then “QGQLVESGGGLVQAGGSLRLRCAASGRTFYTYAMGWYRQAPGKERELVATITSGGSTYADSVKGRFTISRDNAKNTVYLQMNSLKPEDTAVYYCARGYYKPSVGKSKRVGGNYWGQGTQVTVSS”, with “high polyreactivity”; and “QGQLVESGGGLVQAGGSLRLSCAASGFIFRNYAMGWYRQAPGKERELVAAISRGGSTYYADSVKGRFTISRDNAKNTVYLQMNSLKPEDTAVYYCAADASTYYGTQWASYYYWGQGTQVTVSS”, with “high polyreactivity”; and “QGQLVESGGGLVQAGGSLRLSCAASGFTFSYYAMGWYRQAPGKERELVAAISRSGGSTYYADSVKGRFTISRDNAKNTVYLQMNSLKPEDTEVYYCAKRIKDRSGEAYVGLYYWGQGTQVTVSS”, with “high polyreactivity”.

On to “QGQLVESGGGLVQAGGSLRLSCAASGFTFTRNTMGWYRQAPGKERELVAAITRGGSTNYADSVKGRFTISRDNAKNTVYLQLNSLKPEDTAVYYCNKGRNVVLVRTADDYWGQGTQVTVSS”, for which the “polyreactivity (PSR sort gate)” value was “low polyreactivity”.
